Measured values reported in the supplement of paper PMC12042874.
± gives the uncertainty stated by the source.

test: amyloid nucleation score (Sup35N fusion, yeast selection) (log enrichment); library NNK1; higher = more nucleation; inactive = no reads after selection
Summary of the method: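 Sup35N was fused to peptides of 20 random codons and expressed in psi-negative yeast, which were induced with 100 μM copper sulfate for 24 hours and then grown on medium lacking adenine and uracil for 7 days at 30°C. Plasmid inserts from input and output were sequenced on Illumina. The nucleation score is the DiMSum log enrichment of output over input reads, centred on the mode score of non-aggregating sequences. Sequences with under 100 input reads were left out, and random libraries had three technical output replicates.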

| Substance | amyloid nucleation score |
| --- | --- |
| IRTVKADNMRIWQAQRSSEI | 0.157 ± 0.87 |
| IRVSFIVQSCILSALEDALN | 2.68 ± 0.13 |
| ISAKH | -0.89 ± 0.65 |
| ISCQQSE | -1.57 ± 2.4 |
| ISCVDWAIKCGVVGSLVSET | 0.681 ± 0.99 |
| ISFDSLWDCSYS | -0.232 ± 0.23 |
| ISFYTVRWLAAGRRFLISF | 0.224 ± 0.59 |
| ISICTMLLFSPVS | -0.894 ± 0.83 |
| ISINQIMFAKGPYFERLAEN | 4.07 ± 0.096 |
| ISNDYGATMFNLGCYI | 1.17 ± 0.18 |
| ISPCDIYRHLSIKGQSCDLI | 0.004 ± 0.32 |
| ISPRHNYPQILMVLLIKVYF | -1.33 ± 1.3 |
| ISSECQVICYLLHEFSPASV | 1.35 ± 0.25 |
| ISSLESRTTMRVV | 0.377 ± 0.5 |
| ISSYTCCFYSYHQSHVMPLG | 5.848 ± 0.051 |
| ISTCLRTSFYVDVGNMSFCN | 0.206 ± 0.44 |
| ISTNLHGDIKMVFVAIPWQE | 4.85 ± 0.09 |
| ISWVPDAVNFFACMHW | 0.094 ± 0.51 |
| ISWYGFAT | inactive |
| ISYGKDNESGCLLHYFHAWV | inactive |
| ISYQVLFIDRWGCRSLPCVW | 0.395 ± 0.39 |
| ITAWWQVSL | 0.565 ± 0.36 |
| ITDCPCRGISVCVV | -0.288 ± 0.26 |
| ITLRVLFFRGKVLFTSGIQE | 0.71 ± 1.1 |
| ITQIADLWHKMT | -0.954 ± 0.89 |
| ITVST | -0.134 ± 1.4 |

| Substance | amyloid nucleation score |
| --- | --- |
| ITVSYDKGFSFNLWGIHFKV | 0.071 ± 0.28 |
| IVDCYSLDRYRVLLWSS | 0.566 ± 0.36 |
| IVEMHYMAGWTGMEMMSWAH | 0.413 ± 1 |
| IVFDSLRGCSF | inactive |
| IVFLVLRTANRMWNDYHAS | -0.075 ± 0.33 |
| IVFNIYLILAKWWVTVTYSD | -1.25 ± 0.5 |
| IVFVLQGRRQ | 0.634 ± 0.88 |
| IVGSSQLSYLGLAFSYGVQV | -0.903 ± 1.7 |
| IVGVYLSLNWRHPSRQGSGC | 0.321 ± 0.19 |
| IVMCTVGKSLMIAQKDHAWA | -0.109 ± 0.61 |
| IVNFRVNRPSL | 0.205 ± 0.31 |
| IVVSVVTASI | -0.018 ± 0.75 |
| IWCHRSGRLFPSMLLKYYRD | -0.766 ± 1.7 |
| IWMWEWQHCSEARKNMMWVS | 2.1 ± 0.13 |
| IWMYP | 1.7 ± 0.65 |
| IYAGHRQHGAV | -0.386 ± 0.55 |
| IYAYAIDSFRSLVFFVFMFG | inactive |
| IYFGSCSRLWPHHVNT | 0.436 ± 0.73 |
| IYGAAFVAEGWTPTLSVGDK | 0.141 ± 0.39 |
| IYGGRIS | -0.557 ± 0.75 |
| IYGWVHTSMRMRVGTAVLPR | 0.375 ± 0.54 |
| IYINVP | 0.764 ± 0.38 |
| IYSNEELIMRVVNQY | 0.856 ± 0.58 |
| KAEMFNYLTNHTP | -0.033 ± 1.1 |
| KANACGRFTN | 3.72 ± 0.1 |
| KAVYVVNGLFVHCVTR | 0.267 ± 0.21 |

| Substance | amyloid nucleation score |
| --- | --- |
| KCIGKHEAVMKIFNWDEENW | 1.73 ± 0.49 |
| KCNVTQFVRSLYIRMSMLLH | 0.534 ± 0.39 |
| KCRVHSSN | -1.08 ± 1.5 |
| KCTVDQTSNIAACTSVGLCI | 5.36 ± 0.093 |
| KCWLHCWWTVNKTLRYAVRS | -0.531 ± 0.47 |
| KCYIVSLNNVGCFTNASS | 5.13 ± 0.072 |
| KDGFTSRAWPHMFKSLRSQL | 1.07 ± 0.63 |
| KDHNVGMYLAGENCHLG | 0.915 ± 0.9 |
| KDLEPVSARMFLLLLICLA | 0.057 ± 0.52 |
| KFLRGYSCNVRSRPTRDRSV | inactive |
| KFRRLQARFASMMSSTFT | 1.82 ± 0.14 |
| KFSGWHLHGDLCRIHALEVW | 0.457 ± 0.27 |
| KFWTGPIRYVN | -0.149 ± 0.31 |
| KGYGRFMSFF | -0.697 ± 0.4 |
| KGYLLRWLGEVYFVNYGSNS | -0.585 ± 0.84 |
| KILVVGHRESIMCTDSYIMW | -0.294 ± 0.59 |
| KISCIISWLYDFIIKLAFFT | -0.931 ± 0.68 |
| KIVCLKFYVIDMRSMLTVVS | 2.54 ± 0.088 |
| KIVSEFCL | 0.36 ± 0.36 |
| KKDSTYSRSRLDPFRLSVSV | -0.14 ± 0.5 |
| KKFFKYELFEVCIFLGYRCS | 0.493 ± 1.2 |
| KKGLLIVVVAHSERYVVDIA | -0.547 ± 0.44 |
| KKMRGTFIRFIYRLFFLRYA | 0.656 ± 0.5 |
| KLFGTAYS | -0.847 ± 0.96 |
| KLFSK | inactive |
| KLIVWDKCSTCHSDVVLLFK | 0.734 ± 0.97 |

| Substance | amyloid nucleation score |
| --- | --- |
| KLKQVCPLTPVSRVSEQGKK | -0.441 ± 1.1 |
| KLLPYMYCHYN | 1.27 ± 0.39 |
| KLLVLLNN | inactive |
| KLLWSPYSGCVVYNIKVKGR | 3.67 ± 0.13 |
| KLNLKFYAFYNM | 5.49 ± 0.073 |
| KLPIAGCYRVINCTVRGE | -0.008 ± 0.26 |
| KLQLVSLWQ | 2.77 ± 0.11 |
| KLSDSSLTKCRYSHFYRSSM | -1.99 ± 2.4 |
| KLTCRDSRFVRAIFVMSKSA | -0.458 ± 0.3 |
| KLVLSYRYNDG | 2.17 ± 0.18 |
| KLVTAPISKSLF | 0.55 ± 0.92 |
| KMKLRHTSCRFSREVTDVY | 0.614 ± 0.32 |
| KMLVSDTNGESSPLL | 0.124 ± 0.39 |
| KNDNAYCGWSWLLLTDSVHF | -0.836 ± 0.42 |
| KNDVASLLLGSMLKANSTCC | 0.413 ± 1.4 |
| KNFDHVKDHIVFQVL | -1.27 ± 1 |
| KNFRRYWGPSLIEIG | 1.13 ± 0.85 |
| KNKGCGGKAEYTLAPIEISM | 0.364 ± 0.55 |
| KNNVDSKHS | 0.021 ± 0.52 |
| KNVSRVCV | inactive |
| KPLILLCHLMGTMSTKCKDM | -0.098 ± 0.26 |
| KREFQCWTSACFFDISSAEL | 0.34 ± 0.79 |
| KRRGSFKVLYSHSVGLYQSF | 2.79 ± 0.14 |
| KRRVSLCMPWVGSDRRVFMG | 0.377 ± 0.31 |
| KRSRYSKR | 0.103 ± 0.48 |
| KRTHSTLHK | 0.36 ± 0.38 |

| Substance | amyloid nucleation score |
| --- | --- |
| KSCTCRNSSYRYVHINLARY | -0.253 ± 0.6 |
| KSGDMWW | 0.087 ± 0.37 |
| KSGTAFLFFKMI | 0.399 ± 0.31 |
| KSQCWRSGLVLFNA | -0.243 ± 0.36 |
| KTCWTILSVLLTLK | 0.489 ± 0.58 |
| KTGARYSLSACYLTRTDYHW | 0.056 ± 0.43 |
| KTHQLTSRTEWLYGVGVSAQ | -1.78 ± 2.4 |
| KTLFMITYFGL | 0.85 ± 0.26 |
| KTRLSWYWKITCLLHSMKFS | -0.12 ± 0.4 |
| KTRNCTNFWLQRGTW | -0.28 ± 0.76 |
| KTSFSCSIRSSYVDWGLGDS | 2.66 ± 0.12 |
| KTYRAIQLSYRIPMKMFRFD | -0.3 ± 0.25 |
| KVCLRRAAYYRVLVHSCHFR | -0.585 ± 0.43 |
| KVEVWRVLGNSVQRRFSKDQ | 0.353 ± 1.1 |
| KVIRLIFRGY | 0.871 ± 0.64 |
| KVLWMSSHLYSATSCCVKRS | 1.82 ± 0.34 |
| KWHTRENCFSFLYVYFLMFP | inactive |
| KWKVR | -0.068 ± 0.38 |
| KWTLTRLYVACRYNDHSRLS | 1.07 ± 0.39 |
| KWVEIITLCMEIWNLYIVCE | -0.048 ± 0.92 |
| KWYERLCIRATLKATLGYFT | 0.055 ± 0.69 |
| KYMFRARCKRMTFGYPG | -1.58 ± 1.4 |
| KYRSCGNGIPLIISHLLVER | 0.317 ± 0.26 |
| KYVIKCTSWVGAMTHSSSKA | 0.333 ± 0.24 |
| KYVIMLNLKSEL | 3.4 ± 0.091 |
